{
  "source": "patent US20120039802A1",
  "about": "(published 2012)",
  "binders": {"B1": {"name": "79-B02 synthetic fluorescein-labeled peptide (SEQ ID NO: 475) (peptide)", "peptide": "Ac-AQHWDYDSGSDFWFPVFFLEHHGGGK(fluorescein)-NH2"}, "B2": {"name": "334-C08 synthetic fluorescein-labeled peptide (SEQ ID NO: 067) (peptide)", "peptide": "Ac-AGGWECTGPPWFQCGYYGTGGGK(fluorescein)-NH2", "modifications": "cysteine pairing not given here"}, "B3": {"name": "104-C09 synthetic fluorescein-labeled peptide (SEQ ID NO: 461) (peptide)", "peptide": "Ac-AQDLKPWTAGWEPPWLWTDRGPGGGK(fluorescein)-NH2"}, "B4": {"name": "330-G09 synthetic fluorescein-labeled peptide (SEQ ID NO: 071) (peptide)", "peptide": "Ac-AGHWICVGPPTFSCQWHGTGGGK(fluorescein)-NH2", "modifications": "cysteine pairing not given here"}, "B5": {"name": "325-H05 synthetic fluorescein-labeled peptide (SEQ ID NO: 048) (peptide)", "peptide": "Ac-AGSIQCKGPPWFSCAMYGTGGGK(fluorescein)-NH2", "modifications": "cysteine pairing not given here"}, "B6": {"name": "118-A08 synthetic fluorescein-labeled peptide (SEQ ID NO: 453) (peptide)", "peptide": "Ac-AQRWSSPGMSQSFVLEWKWNDNGGGK(fluorescein)-NH2"}, "B7": {"name": "116-H02 synthetic fluorescein-labeled peptide (SEQ ID NO: 466) (peptide)", "peptide": "Ac-AQKETWEFFDIVYGSGWKFNSPGGGK(fluorescein)-NH2"}, "B8": {"name": "336-G04 synthetic fluorescein-labeled peptide (SEQ ID NO: 051) (peptide)", "peptide": "Ac-AGWFQCKGPPSFECERHGTGGGK(fluorescein)-NH2", "modifications": "cysteine pairing not given here"}, "B9": {"name": "546-G02 synthetic fluorescein-labeled peptide (SEQ ID NO: 390) (peptide)", "peptide": "Ac-GDYDYCDFDLETYIPECHSYDPGGGK(fluorescein)-NH2", "modifications": "cysteine pairing not given here"}, "B10": {"name": "96-H12 synthetic fluorescein-labeled peptide (SEQ ID NO: 452) (peptide)", "peptide": "Ac-AQRPEAHYKLAMSYPIIPRTKTGGGK(fluorescein)-NH2"}, "B11": {"name": "117-F08 synthetic fluorescein-labeled peptide (SEQ ID NO: 462) (peptide)", "peptide": "Ac-AQHQYGQMMVLHIQYDMGEFIPGGGK(fluorescein)-NH2"}, "B12": {"name": "331-G06 synthetic fluorescein-labeled peptide (SEQ ID NO: 078) (peptide)", "peptide": "Ac-AGNWICTGPPSFGCWYHGTGGGK(fluorescein)-NH2", "modifications": "cysteine pairing not given here"}, "B13": {"name": "94-F07 synthetic fluorescein-labeled peptide (SEQ ID NO: 458) (peptide)", "peptide": "Ac-AQPYYELQDADMLLVVALLSTGGGGK(fluorescein)-NH2"}, "B14": {"name": "548-F06 synthetic fluorescein-labeled peptide (SEQ ID NO: 056) (peptide)", "peptide": "Ac-AGWISCAGPPTFACWPGGTGGGK(fluorescein)-NH2", "modifications": "cysteine pairing not given here"}, "B15": {"name": "103-G08 synthetic fluorescein-labeled peptide (SEQ ID NO: 459) (peptide)", "peptide": "Ac-AQVGTAEAIMFSDVEDTGVHKFGGGK(fluorescein)-NH2"}, "B16": {"name": "95-A11 synthetic fluorescein-labeled peptide (SEQ ID NO: 456) (peptide)", "peptide": "Ac-AQVGSPMLPSWFSFEANWSSGGGK(fluorescein)-NH2"}, "B17": {"name": "525-A07 synthetic fluorescein-labeled peptide (SEQ ID NO: 449) (peptide)", "peptide": "Ac-AQQASRFTFTDGDSYWWFEDFGGGK(fluorescein)-NH2"}, "B18": {"name": "329-D02 synthetic fluorescein-labeled peptide (SEQ ID NO: 061) (peptide)", "peptide": "Ac-AGHAWCSGPPRFECWPPGTGGGK(fluorescein)-NH2", "modifications": "cysteine pairing not given here"}, "B19": {"name": "330-B07 synthetic fluorescein-labeled peptide (SEQ ID NO: 053) (peptide)", "peptide": "Ac-AGSFACKGPPTFACVEFGTGGGK(fluorescein)-NH2", "modifications": "cysteine pairing not given here"}, "B20": {"name": "524-E09 synthetic fluorescein-labeled peptide (SEQ ID NO: 451) (peptide)", "peptide": "Ac-AQREVEEPYWYLDFLSSWRMHEGGGK(fluorescein)-NH2"}, "B21": {"name": "127-A07 synthetic fluorescein-labeled peptide (SEQ ID NO: 469) (peptide)", "peptide": "Ac-AQGFELWVDHTRNFFIAISPGGGK(fluorescein)-NH2"}, "B22": {"name": "323-A11 synthetic fluorescein-labeled peptide (SEQ ID NO: 059) (peptide)", "peptide": "Ac-AGYTSCVGPPSFECTPYGTGGGK(fluorescein)-NH2", "modifications": "cysteine pairing not given here"}, "B23": {"name": "331-F01 synthetic fluorescein-labeled peptide (SEQ ID NO: 072) (peptide)", "peptide": "Ac-AGEWWCHGPPEFLCYWTGTGGGK(fluorescein)-NH2", "modifications": "cysteine pairing not given here"}, "B24": {"name": "02-B08 synthetic fluorescein-labeled peptide (SEQ ID NO: 467) (peptide)", "peptide": "Ac-AQHSVQRQMDVWMPVQFMAGFTGGGK(fluorescein)-NH2"}, "B25": {"name": "93-C08 synthetic fluorescein-labeled peptide (SEQ ID NO: 464) (peptide)", "peptide": "Ac-AQVPDWLSAVVIEKLIEYGMMVGGGK(fluorescein)-NH2"}, "B26": {"name": "333-C03 synthetic fluorescein-labeled peptide (SEQ ID NO: 391) (peptide)", "peptide": "Ac-GDDFHCEFIDDYQSEICYFNDPGGGK(fluorescein)-NH2", "modifications": "cysteine pairing not given here"}, "B27": {"name": "528-F05 synthetic fluorescein-labeled peptide (SEQ ID NO: 450) (peptide)", "peptide": "Ac-AQIQGIQKTEQGEFYWFNWFPAGGGK(fluorescein)-NH2"}, "B28": {"name": "94-E08 synthetic fluorescein-labeled peptide (SEQ ID NO: 454) (peptide)", "peptide": "Ac-AQYDTWVFQFIHEVPGELVAMQGGGK(fluorescein)-NH2"}, "B29": {"name": "333-C05 synthetic fluorescein-labeled peptide (SEQ ID NO: 068) (peptide)", "peptide": "Ac-AGDIVCTGHPYFECWSWGTGGGK(fluorescein)-NH2", "modifications": "cysteine pairing not given here"}, "B30": {"name": "335-D11 synthetic fluorescein-labeled peptide (SEQ ID NO: 074) (peptide)", "peptide": "Ac-AGSIQCVGPPSFECTPYGTGGGK(fluorescein)-NH2", "modifications": "cysteine pairing not given here"}, "B31": {"name": "76-D09 synthetic fluorescein-labeled peptide (SEQ ID NO: 463) (peptide)", "peptide": "Ac-AQSPYIFPIDDSGRQIFVIQWGGGGK(fluorescein)-NH2"}, "B32": {"name": "334-G06 synthetic fluorescein-labeled peptide (SEQ ID NO: 052) (peptide)", "peptide": "Ac-AGWTHCIGPPTFECIPMGTGGGK(fluorescein)-NH2", "modifications": "cysteine pairing not given here"}, "B33": {"name": "457-A09 peptide-displaying phage (SEQ ID NO: 024) (peptide)", "peptide": "AGYPECKDNYHWCEWKGT"}, "B34": {"name": "423-C11 peptide-displaying phage (SEQ ID NO: 022) (peptide)", "peptide": "AGVLQCIGFEWFCDIWGT"}, "B35": {"name": "499-C09 peptide-displaying phage (SEQ ID NO: 023) (peptide)", "peptide": "AGVIVCNLSMMYCLYPGT"}},
  "note": "fluorescein = fluorescein label on the side chain of the C-terminal Lys",
  "data": [
    {"biological_target": "T1, cMet-Fc fusion protein (extracellular domain of the cMet receptor expressed as an Fc-fusion protein) (human, UniProt P08581 25-932)", "T1 construct": "extracellular domain; also called soluble cMet-Fc-fusion protein; soluble cMet receptor; not shown: Fc part", "T1 sequence (P08581 25-932)": "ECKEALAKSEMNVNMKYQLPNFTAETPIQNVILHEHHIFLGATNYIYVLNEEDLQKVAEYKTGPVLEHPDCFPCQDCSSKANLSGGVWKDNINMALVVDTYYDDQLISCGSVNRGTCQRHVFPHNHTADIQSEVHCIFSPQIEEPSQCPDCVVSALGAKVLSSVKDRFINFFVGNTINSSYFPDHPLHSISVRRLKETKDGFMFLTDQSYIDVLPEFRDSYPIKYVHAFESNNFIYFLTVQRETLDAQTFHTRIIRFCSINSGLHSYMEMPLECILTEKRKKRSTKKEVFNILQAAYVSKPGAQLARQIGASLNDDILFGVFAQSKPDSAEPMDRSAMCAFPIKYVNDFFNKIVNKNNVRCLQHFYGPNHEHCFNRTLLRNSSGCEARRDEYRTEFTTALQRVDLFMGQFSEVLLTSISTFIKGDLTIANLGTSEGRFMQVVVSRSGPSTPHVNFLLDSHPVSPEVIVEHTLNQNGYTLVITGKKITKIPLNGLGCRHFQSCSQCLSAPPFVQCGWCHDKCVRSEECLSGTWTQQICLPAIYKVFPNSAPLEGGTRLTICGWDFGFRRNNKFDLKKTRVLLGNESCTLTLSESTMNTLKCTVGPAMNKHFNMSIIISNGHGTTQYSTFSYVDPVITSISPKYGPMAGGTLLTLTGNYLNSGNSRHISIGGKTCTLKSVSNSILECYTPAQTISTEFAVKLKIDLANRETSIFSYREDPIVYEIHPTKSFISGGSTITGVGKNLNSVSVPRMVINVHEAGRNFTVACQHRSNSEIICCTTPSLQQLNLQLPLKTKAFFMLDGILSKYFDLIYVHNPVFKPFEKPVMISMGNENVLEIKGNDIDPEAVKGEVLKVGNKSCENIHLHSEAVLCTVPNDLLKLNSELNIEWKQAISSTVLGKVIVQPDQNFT", "assay": "fluorescence polarization, 20 nM fluorescein peptide, cMet-Fc varied", "experimental": "Fluorescence anisotropy measurements were performed in 384-well microplates in a volume of 10 μL in binding buffer (PBS, 0.01% Tween-20, pH 7.5) using a Tecan Polarion fluorescence polarization plate reader ([…]). […] Binding mixtures were equilibrated for 10 minutes in the microplate at 30 C before measurement. The observed change in anisotropy was fit to the equation below via nonlinear regression to obtain the apparent KD. This equation (1) assumes that the synthetic peptide and cMet form a reversible complex in solution with 1:1 stoichiometry.", "units": {"Kd": "µM"}, "values": [
      {"binder": "B1", "Kd": 1.9},
      {"binder": "B2", "Kd": 1.65},
      {"binder": "B3", "Kd": "> 2"},
      {"binder": "B4", "Kd": 1.85},
      {"binder": "B5", "Kd": 3.5},
      {"binder": "B6", "Kd": "> 2"},
      {"binder": "B7", "Kd": "> 2"},
      {"binder": "B8", "Kd": 3.2},
      {"binder": "B9", "Kd": 1.5},
      {"binder": "B10", "Kd": "> 2"},
      {"binder": "B11", "Kd": "> 2"},
      {"binder": "B12", "Kd": 2.9},
      {"binder": "B13", "Kd": 3.75},
      {"binder": "B14", "Kd": 2.7},
      {"binder": "B15", "Kd": "> 2"},
      {"binder": "B16", "Kd": 2.3},
      {"binder": "B17", "Kd": 6.9},
      {"binder": "B18", "Kd": 5.2},
      {"binder": "B19", "Kd": 2.9},
      {"binder": "B20", "Kd": 2},
      {"binder": "B21", "Kd": 2.4},
      {"binder": "B22", "Kd": 4.3},
      {"binder": "B23", "Kd": 0.98},
      {"binder": "B24", "Kd": "> 2"},
      {"binder": "B25", "Kd": "> 2"},
      {"binder": "B26", "Kd": 1.8},
      {"binder": "B27", "Kd": 2.7},
      {"binder": "B28", "Kd": 0.93},
      {"binder": "B29", "Kd": 2.8},
      {"binder": "B30", "Kd": 3.3},
      {"binder": "B31", "Kd": "> 2"},
      {"binder": "B32", "Kd": 2.7}
    ]},
    {"biological_target": "T1, cMet-Fc fusion protein (extracellular …)", "assay": "phage ELISA, cMet-Fc vs TRAIL-Fc", "in_short": "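Specificity check: phage displaying peptides incubated 2 h at room temperature on wells coated with 0.5 μg/mL cMet-Fc versus TRAIL-Fc, after blocking with 3% BSA/PBST. HRP-anti-M13 antibody detected binding phage.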", "units": {"Protein ELISA (fold over background)": "fold"}, "values": [
      {"binder": "B33", "Protein ELISA (fold over background)": 14.5},
      {"binder": "B34", "Protein ELISA (fold over background)": 3.4},
      {"binder": "B35", "Protein ELISA (fold over background)": 3.2}
    ]},
    {"biological_target": "T1, cMet-Fc fusion protein (extracellular …)", "assay": "phage ELISA on cMet-Fc, competitor HGF 500 ng/mL", "in_short": "(§1)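 Plates coated with 0.5 μg/mL cMet-Fc, with TRAIL-Fc as background, then blocked with 3% BSA. Bound phage detected with HRP anti-M13 antibody.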", "units": {"% of binding in the absence of HGF": "%"}, "values": [
      {"binder": "B33", "% of binding in the absence of HGF": 67},
      {"binder": "B34", "% of binding in the absence of HGF": 75},
      {"binder": "B35", "% of binding in the absence of HGF": 70}
    ]},
    {"biological_target": "T2, human cMet expressed on 3T3 cells (human, UniProt P08581 25-1390)", "T2 construct": "whole, on cells; cells fixed with glutaraldehyde; also called cell surface-expressed human cMet; 3T3 cells that over-express human cMet", "T2 sequence (P08581 25-1390)": "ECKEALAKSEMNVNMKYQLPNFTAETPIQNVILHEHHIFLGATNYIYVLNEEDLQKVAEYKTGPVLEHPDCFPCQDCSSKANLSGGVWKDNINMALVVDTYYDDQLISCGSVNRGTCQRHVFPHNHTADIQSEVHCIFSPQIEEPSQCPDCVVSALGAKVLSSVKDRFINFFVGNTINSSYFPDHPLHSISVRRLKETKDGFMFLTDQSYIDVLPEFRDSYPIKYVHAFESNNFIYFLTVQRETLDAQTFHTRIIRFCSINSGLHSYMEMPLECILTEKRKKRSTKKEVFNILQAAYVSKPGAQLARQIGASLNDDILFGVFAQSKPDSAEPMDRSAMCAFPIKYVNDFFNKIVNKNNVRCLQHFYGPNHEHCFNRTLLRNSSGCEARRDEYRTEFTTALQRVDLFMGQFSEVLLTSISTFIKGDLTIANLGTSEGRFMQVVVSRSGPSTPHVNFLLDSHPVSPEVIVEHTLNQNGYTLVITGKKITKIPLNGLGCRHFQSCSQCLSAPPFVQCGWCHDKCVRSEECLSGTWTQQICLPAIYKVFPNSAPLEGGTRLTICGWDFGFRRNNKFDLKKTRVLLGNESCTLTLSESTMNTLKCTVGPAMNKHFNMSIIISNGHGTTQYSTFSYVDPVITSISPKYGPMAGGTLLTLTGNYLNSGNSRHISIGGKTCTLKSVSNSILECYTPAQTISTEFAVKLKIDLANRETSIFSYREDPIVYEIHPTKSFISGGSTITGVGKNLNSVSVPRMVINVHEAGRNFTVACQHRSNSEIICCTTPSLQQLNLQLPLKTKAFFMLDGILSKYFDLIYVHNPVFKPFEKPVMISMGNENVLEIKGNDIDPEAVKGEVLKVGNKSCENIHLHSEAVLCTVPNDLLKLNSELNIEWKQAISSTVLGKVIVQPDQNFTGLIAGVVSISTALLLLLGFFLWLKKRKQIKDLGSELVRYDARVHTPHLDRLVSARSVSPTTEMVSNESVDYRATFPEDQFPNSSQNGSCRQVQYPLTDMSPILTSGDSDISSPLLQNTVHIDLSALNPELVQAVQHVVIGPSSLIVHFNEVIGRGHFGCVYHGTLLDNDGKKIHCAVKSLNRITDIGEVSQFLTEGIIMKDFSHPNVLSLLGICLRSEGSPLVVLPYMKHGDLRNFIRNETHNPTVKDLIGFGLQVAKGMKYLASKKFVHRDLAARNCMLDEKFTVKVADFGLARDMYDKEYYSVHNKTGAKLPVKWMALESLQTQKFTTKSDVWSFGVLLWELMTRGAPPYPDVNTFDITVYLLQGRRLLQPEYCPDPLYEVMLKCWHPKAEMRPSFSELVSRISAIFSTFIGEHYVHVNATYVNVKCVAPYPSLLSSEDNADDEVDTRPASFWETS", "assay": "whole cell phage ELISA, 3T3 human cMet vs 3T3", "in_short": "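Bound phage was detected with an HRP-conjugated anti-M13 antibody after PBST washes. The cells were cMet-over-expressing 3T3, read against plain 3T3.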", "units": {"WC ELISA (fold over background)": "fold"}, "values": [
      {"binder": "B33", "WC ELISA (fold over background)": 1.3},
      {"binder": "B34", "WC ELISA (fold over background)": 1.4},
      {"binder": "B35", "WC ELISA (fold over background)": 1.33}
    ]},
    {"biological_target": "T1, cMet-Fc fusion protein (extracellular …)", "assay": "phage ELISA on cMet-Fc, competitor HGF 100 ng/mL", "in_short": "as §1", "units": {"% of binding in the absence of HGF": "%"}, "values": [
      {"binder": "B33", "% of binding in the absence of HGF": 27},
      {"binder": "B34", "% of binding in the absence of HGF": 132},
      {"binder": "B35", "% of binding in the absence of HGF": 91}
    ]}
  ]
}
